Where a chain is given by its changes, count along the chain named. *1 amine or outer side, *2 acyl side, *3 side chain or, on linkers, in order; H or OH if unused. Where no end group is shown, it is not given here. Side-chain parts run from the residue outwards. [ ]: non-standard residue; d: D form. The star is where a group is joined. C20 diacid = O=C(O)CCCCCCCCCCCCCCCCCCC(=O)*; C18 diacid = O=C(O)CCCCCCCCCCCCCCCCC(=O)*; γGlu = O=C(O)[C@H](CCC(=O)[*:2])N[*:1]; εLys = N[C@@H](CCCCN[*:1])C(=O)[*:2]; Aib = CC(C)(N)C(=O)O
T1: human neuropeptide Y2 receptor (human, UniProt P49146 1-381)
T1 sequence (looked up): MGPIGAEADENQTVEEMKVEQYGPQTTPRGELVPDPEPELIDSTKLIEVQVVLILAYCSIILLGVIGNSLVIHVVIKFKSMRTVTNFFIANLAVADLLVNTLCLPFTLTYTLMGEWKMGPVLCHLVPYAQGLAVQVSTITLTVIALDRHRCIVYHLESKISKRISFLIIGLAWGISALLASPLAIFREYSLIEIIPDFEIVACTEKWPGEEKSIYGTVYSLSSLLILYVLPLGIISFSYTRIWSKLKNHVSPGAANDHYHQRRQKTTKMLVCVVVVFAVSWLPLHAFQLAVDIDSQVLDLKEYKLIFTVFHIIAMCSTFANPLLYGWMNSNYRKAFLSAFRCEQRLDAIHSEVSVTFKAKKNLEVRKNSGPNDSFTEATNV

T2: human GIP receptor (human, UniProt P48546 22-466)
T2 sequence (looked up): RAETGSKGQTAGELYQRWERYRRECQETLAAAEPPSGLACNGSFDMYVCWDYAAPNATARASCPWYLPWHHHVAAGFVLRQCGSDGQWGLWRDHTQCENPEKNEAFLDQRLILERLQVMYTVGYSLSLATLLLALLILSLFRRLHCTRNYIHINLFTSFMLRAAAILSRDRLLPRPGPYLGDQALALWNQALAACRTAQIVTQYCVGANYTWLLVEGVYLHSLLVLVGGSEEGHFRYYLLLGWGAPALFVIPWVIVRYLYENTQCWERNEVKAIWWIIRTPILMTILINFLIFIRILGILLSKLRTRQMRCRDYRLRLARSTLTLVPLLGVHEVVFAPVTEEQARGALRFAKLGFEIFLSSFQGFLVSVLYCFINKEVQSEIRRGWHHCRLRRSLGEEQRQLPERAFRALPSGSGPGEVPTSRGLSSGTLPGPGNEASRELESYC

B1: Compound 40 (peptide)
peptide: YXEGTFTSDYSIXLDEQAQXAFVRHLINKXTRQRY
modifications: Aib at 2, 13, 20, 30; Lys29 epsilon-amino acylated with C18DA-gGlu-gGlu-gGlu-gGlu-gGlu-gGlu-eLys; C-terminal amide
B2: Compound 50 (peptide)
peptide: B1 peptide with D15E, E16K, H25Q
modifications: Aib at 2, 13, 20, 30; Lys29 epsilon-amino acylated with C18DA-gGlu-gGlu-gGlu-gGlu-gGlu; C-terminal amide
B3: Compound 5 (peptide)
peptide: B1 peptide with D15E, E16X
modifications: Aib at 2, 13, 16, 20, 30; Lys29 epsilon-amino acylated with C18DA-gGlu-gGlu-gGlu-gGlu-gGlu-gGlu-eLys; C-terminal amide
B4: Compound 53 (peptide)
peptide: B1 peptide with D15E, E16K, V23I
modifications: Aib at 2, 20, 30; aMeL at 13; Lys29 epsilon-amino acylated with C20DA-gGlu-gGlu-gGlu-gGlu-gGlu-gGlu-eLys; C-terminal amide
B5: Compound 55 (peptide)
peptide: B1 peptide with E16A
modifications: Aib at 2, 13, 20, 30; Lys29 epsilon-amino acylated with C18DA-gGlu-gGlu-gGlu-gGlu-gGlu-gGlu-eLys; C-terminal amide
B6: Compound 6 (peptide)
peptide: B1 peptide with D15E, E16N
modifications: Aib at 2, 13, 20, 30; Lys29 epsilon-amino acylated with C18DA-gGlu-gGlu-gGlu-gGlu-gGlu-gGlu-eLys; C-terminal amide
B7: Compound 71 (peptide)
peptide: B1 peptide with D15E
modifications: Aib at 2, 13, 20, 30; Lys29 epsilon-amino acylated with C18DA-gGlu-gGlu-gGlu-gGlu-gGlu-gGlu-eLys; C-terminal amide
B8: Compound 80 (peptide)
peptide: B1 peptide with D15E, E16K, I27L
modifications: Aib at 2, 13, 20, 30; Lys29 epsilon-amino acylated with C20DA-gGlu-gGlu-gGlu-gGlu-gGlu-gGlu-eLys; C-terminal amide
B9: Compound 15 (peptide)
peptide: B1 peptide with Y10F, D15E, E16K
modifications: Aib at 2, 13, 20, 30; Lys29 epsilon-amino acylated with C20DA-gGlu-gGlu-gGlu-gGlu-gGlu-gGlu-eLys; C-terminal amide

Legend:
[1] = molecular target: T1, human neuropeptide Y2 receptor; experiment: cell-based or functional assay
human GIP receptor = molecular target: T2, human GIP receptor; experiment: cell-based or functional assay

Binder | EC50, CreLuc reporter, 0.5% hP [1] [nM] | EC50, CreLuc reporter, 100% hP [1] [nM] | EC50, CreLuc reporter, 0.5% hP (human GIP receptor) [nM] | EC50, CreLuc reporter, 100% hP (human GIP receptor) [nM]
B1 | 16.2 | 59.4 | 0.3 | –
B2 | 335 | 522 | 0.7 | 23.3
B3 | 28.6 | 89.4 | – | 25
B4 | – | – | 0.1 | 1.7
B5 | 18.3 | 108 | 0.4 | 7
Y[Aib]EGTFTSDYSILLEKQAQ[Aib]AFVRHLINK([γGlu-γGlu-γGlu-γGlu-γGlu-γGlu-C20 diacid])[Aib]TRQRY-NH2 [Compound 57] | – | – | 0.3 | –
B6 | 14.7 | 51 | 0.7 | 7.3
B7 | – | – | 0.3 | –
B8 | – | – | 1.7 | –
Y[Aib]EGTFTSDYSI[Aib]LEKQAQ[Aib]AFVRHLINK([εLys-εLys-γGlu-γGlu-γGlu-γGlu-γGlu-γGlu-C18 diacid])[Aib]TRQRY-NH2 [Compound 11] | – | – | – | 8
B9 | – | – | 0.6 | –

From patent US20250382344A1, “Soluble GLP1/GIP/NPY2 Receptor Triple Agonists” (Boehringer Ingelheim International GmH, priority 2024, published 2025)
